System: Bacillus subtilis
Assay: cleaved RNA product abundance (RNA/gDNA barcode ratio) relative to median wild-type variant (ratio to wild type); higher = more accumulation of the downstream cleavage product
Summary of the method: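 Reporter mRNAs based on truncated aprE or tetM carried barcoded, mutagenized RNase Y cleavage-site windows built from oligos with a 9% error rate and were integrated into the B. subtilis chromosome. Cultures grew in LB at 37°C from OD600 0.0003 to 0.3. Cleaved RNA was gel-selected, reverse transcribed and barcode-sequenced together with genomic DNA barcodes, and UMIs were collapsed. Cleaved product abundance is the per-construct ratio of RNA to gDNA barcodes, scaled to the median of constructs carrying the unmutated site.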

[1] = experiment (reporter, strain, medium): exp 2b: truncated aprE reporter, strain BJT200, cleavage site: cggR-gapA (positions -7 to +36 mutated)
[2] = experiment (reporter, strain, medium): exp 8a: truncated aprE reporter, strain BJT201 with 2% xylose (RNase J1 expressed), cleavage site: glnRA (positions -5 to +31 mutated)
[3] = experiment (reporter, strain, medium): exp 4a: truncated aprE reporter, strain BJT201 with 2% xylose (RNase J1 expressed), cleavage site: cggR-gapA (positions -7 to +36 mutated)

Sequence | cleaved RNA product abundance [1] | cleaved RNA product abundance [2] | cleaved RNA product abundance [3] | further results
ACAGACGAAGGAGCCGCAAAGAAGTTATTAAGGGATGAATAATCCTTCCATATAAATATCTCTCACTTATTTAAA | 0.19 |  |  | 
ACAGACGAAGGAGCCGCAAACAAGTTATTAAGGGATGAATAATCCCTCAATATTAATATCTCTCACTTATTTAAA | 0.12 |  |  | 
CGACATGTCCCGCTTCTTTCATTATTCCGTTAGCAACTGCTTTGCTATATACATTTACCTTTTAAGAGGAGGAAT |  | 0.681 |  | 
ACAGACGAAGGAGCCGCAAAGAAGTTATAAAGGCATGAATAATCCCTCAATATAAATATCTCTCACTTATTTAAA | 0.122 |  | 0.113 | 
CGACATGTCCCGCTTCTTTCATTAATCAGTTAGCAACTGTGTTGCTATATACATTTACCTTTTAAGAGGAGGAAT |  | 0.251 |  | 
ACAGACGAAGGAGCCGCAAAGAAGTTATTAAAGGATGAATGATCCCTCAATATAAATATCTCTCACTTATTTAAA | 0.0792 |  | 0.155 | 
ACAGACGAAGGAGCCGCAAAGAAGTTATTAAGGGATGAATAATCCCGCAATATAAATATCTCTCACTTATTTAAA | 0.194 |  | 0.244 | cleaved RNA product abundance (experiment (reporter, strain, medium): exp 6: tetM reporter, strain 168, cleavage site: cggR-gapA (positions -7 to +36 mutated)): 0.252
ACAGACGAAGGAGCCGCAAAGAAGTTATTAAAGGATGAATTATCCCTCAATATAAATATCTCTCACTTATTTAAA | 0.14 |  | 0.149 | 
ACAGACGAAGGAGCCGCGAATAAGTTATTAAGGGATGAATAATCCCTCAATATAAATATCTCTCACTTATTTAAA | 1.19 |  | 1.47 | 
ACAGACGAAGGAGCCGCAAAGAAGTTATTAAGGGAAGAATAATCTCTCAATATAAATATCTCTCACTTATTTAAA | 0.124 |  | 0.201 | 
CGACATGTCCCGCTTCTTTCATTAATCCGTTATCAAGTGTTTTGCTATATACATTTACCTTTTAAGAGGAGGAAT |  | 0.202 |  | 
CGACATGTCCCGCTTCTTTCATTAATCCGTCAGCAACTGTTTTGCTATATACATTTAACTTTTAAGAGGAGGAAT |  | 0.483 |  | 
ACAGACGAAGGAGCCGCAAAGAAGTTATCAAGGGATGAATAAACCCTCAATATAAATATCTCTCACTTATTTAAA | 0.148 |  | 0.205 | 
ACAGACGAAGGAGCCGCAAAGAAGTTATTAAGGGATGAATCATCCCTCAATAAAAATATCTCTCACTTATTTAAA |  |  | 0.197 | 
ACAGACGAAGGAGCCGCAAAAAAGTTATTAAGAGATAAATAATCCCTCAATATAAATATCTCTCACTTATTTAAA |  |  | 0.0994 | 
CGACATGTCCCGCTTCTTTCATTATTCCGTTAGCAACTGTTTTGCTATATACATTTACCCTTTAAGAGGAGGAAT |  | 0.558 |  | 
CGACATGTCCCGCTTCTTTCATTAATCCGATAGCAACTGTTTTGCTAGATACATTTACCTTTTAAGAGGAGGAAT |  | 0.354 |  | 
CGACATGTCCCGCTTCTTTCATTAATCTGTTATCAATTGTTTTGCTATATACATTTACCTTTTAAGAGGAGGAAT |  | 0.383 |  | 
CGACATGTCCCGCTTCTTTCATTAATCCGTGAGCAACTGTTTTGCTATATACTTTTACCTTTTAAGAGGAGGAAT |  | 0.154 |  | 
ACAGACGAAGGAGCCGCAAAGAAGTTATTAAGGGATGAATAAACCCTCTATATAAATATCTCTCACTTATTTAAA | 0.151 |  |  | 
ACAGACGAAGGAGCCGCAAAGAAGTTATTAAGTGATGAATAATCCCTCAATATAAATCTCTCTCACTTATTTAAA | 0.116 |  |  | 
ACAGACGAAGGAGCCGCAAAGAAGTTATTAAGGGACGAATAATCAATCAATATAAATATCTCTCACTTATTTAAA |  |  | 0.132 | 
ACAGACGAAGGAGCCGCAAAGAAGTTATTAAGGGATGAATAATCCCTGAAGATAAATATCTCTCACTTATTTAAA |  |  | 0.387 | 
ACAGACGAAGGAGCCGCAAAGAACTTATTAAGGGATGAGTAATCCCTCAATATAAATATCTCTCACTTATTTAAA |  |  | 0.421 | 
ACAGACGAAGGAGCCGCAAAGAAGTTATTAAGGGATTAATAATCCCTCAATCTAAATATCTCTCACTTATTTAAA | 0.164 |  |  | 
CGACATGTCCCGCTTCTTTCATTAATCAGTTAACAACTGTTTTGCTATATACATTTACCTTTTAAGAGGAGGAAT |  | 0.249 |  | 
CGACATGTCCCGCTTCTTTCATTAATCTGTTAGCAACTGTTATCCTATATACATTTACCTTTTAAGAGGAGGAAT |  | 0.577 |  | 
ACAGACGAAGGAGCCGCAAAGAAGTTATTAATGGAAGAATAATCCCTCAATATAAATATCTCTCACTTATTTAAA | 0.0884 |  | 0.114 | 
ACAGACGAAGGAGCCGCAAAGAAGTTATTAACGGATGTATAATCCCTCAATATAAATATCTCTCACTTATTTAAA | 0.124 |  | 0.147 | 

— the supplement of paper PMC11780869
